Source: patent US20210188958A1 (JILIN UNIVERSITY, published 2021)

Key:
Assay in all cases: indirect ELISA, peptide coated at 0.25 ug/well
synthetic peptide W4 = target: T1, synthetic peptide W4 (Trichinella spiralis)
T1 construct: also called Ts-WN10-W4
T1 peptide: TVSKCFEEVEEPLII

synthetic peptide W5 = target: T2, synthetic peptide W5 (Trichinella spiralis)
T2 construct: also called Ts-WN10-W5
T2 peptide: QILGETTHYGRNDP

synthetic peptide W6 = target: T3, synthetic peptide W6 (Trichinella spiralis)
T3 construct: also called Ts-WN10-W6
T3 peptide: ALFSSDSKEQSGVLH

synthetic peptide W7 = target: T4, synthetic peptide W7 (Trichinella spiralis)
T4 construct: also called Ts-WN10-W7
T4 peptide: HKLVELEESSTMGIL

synthetic peptide W8 = target: T5, synthetic peptide W8 (Trichinella spiralis)
T5 construct: also called Ts-WN10-W8
T5 peptide: CTLEYRHRTPSTATV

synthetic peptide W9 = target: T6, synthetic peptide W9 (Trichinella spiralis)
T6 construct: also called Ts-WN10-W9
T6 peptide: EEQVVSQRSQMLGGT

synthetic peptide W10 = target: T7, synthetic peptide W10 (Trichinella spiralis)
T7 construct: also called Ts-WN10-W10
T7 peptide: IFESDKKKSSGTYLL

synthetic peptide W11 = target: T8, synthetic peptide W11 (Trichinella spiralis)
T8 construct: also called Ts-WN10-W11
T8 peptide: KETECGIKEKAFNSY

synthetic peptide W12 = target: T9, synthetic peptide W12 (Trichinella spiralis)
T9 construct: also called Ts-WN10-W12
T9 peptide: EKAFNSYEDVYKNCS

synthetic peptide W13 = target: T10, synthetic peptide W13 (Trichinella spiralis)
T10 construct: also called Ts-WN10-W13
T10 peptide: DVYKNCSGSGDSKVC

synthetic peptide W14 = target: T11, synthetic peptide W14 (Trichinella spiralis)
T11 construct: also called Ts-WN10-W14
T11 peptide: VEYKYFDPTKSTVEC

synthetic peptide W1 = target: T12, synthetic peptide W1 (Trichinella spiralis)
T12 construct: also called Ts-WN10-W1
T12 peptide: ALFSSDLKQESGVFH

synthetic peptide W2 = target: T13, synthetic peptide W2 (Trichinella spiralis)
T13 construct: also called Ts-WN10-W2
T13 peptide: VNCQGEGRRKHCTME

synthetic peptide W3 = target: T14, synthetic peptide W3 (Trichinella spiralis)
T14 construct: also called Ts-WN10-W3
T14 peptide: TMEYTHRNPSKATVS

B1: WN10-1H9-Ab (antibody, V domains shown)
VH: QVQLQQPGSELVRPGASVKLSCKASGYTFTSYWMHWVKQRPGQGLEWIGNISPGSGNTNYDEKFKTKATLTVDTSSSTAYMQLSSLTSEDSAVYYCTRHGTVDYWGQGTTVTVSS
VL: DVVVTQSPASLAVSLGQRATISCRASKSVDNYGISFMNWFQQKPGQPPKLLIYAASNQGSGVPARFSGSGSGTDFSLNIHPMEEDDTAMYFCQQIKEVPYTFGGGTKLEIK
notes: Mouse monoclonal antibody; It was used as hybridoma supernatant in the ELISAs; also called 1H9 monoclonal antibody; monoclonal antibody generated by hybridoma cell line WN10-1H9 (CGMCC No. 18316)
- OD 450 nm (synthetic peptide W4): 0.171 OD 450 nm
- OD 450 nm (synthetic peptide W5): 0.286 OD 450 nm
- OD 450 nm (synthetic peptide W6): 0.127 OD 450 nm
- OD 450 nm (synthetic peptide W7): 0.162 OD 450 nm
- OD 450 nm (synthetic peptide W8): 0.152 OD 450 nm
- OD 450 nm (synthetic peptide W9): 0.144 OD 450 nm
- OD 450 nm (synthetic peptide W10): 0.161 OD 450 nm
- OD 450 nm (synthetic peptide W11): 0.147 OD 450 nm
- OD 450 nm (synthetic peptide W12): 0.16 OD 450 nm
- OD 450 nm (synthetic peptide W13): 0.166 OD 450 nm
- OD 450 nm (synthetic peptide W14): 0.158 OD 450 nm
- OD 450 nm (synthetic peptide W1): 0.0733 OD 450 nm
- OD 450 nm (synthetic peptide W2): 1.15 OD 450 nm
- OD 450 nm (synthetic peptide W3): 0.149 OD 450 nm
